Reference: the Immune Epitope Database (IEDB)

Experiments:
Experiment in all cases: IEDB peptide-MHC binding, cellular MHC/competitive/fluorescence; ≥ and ≤ were set here for values at or beyond the usual limits of such assays
HLA-A*02:01 = molecular target: HLA-A*02:01
HLA-A*02:02 = molecular target: HLA-A*02:02
HLA-A*02:03 = molecular target: HLA-A*02:03
HLA-A*02:06 = molecular target: HLA-A*02:06
HLA-A*68:02 = molecular target: HLA-A*68:02
[1] = source organism: Vaccinia virus WR
[2] = source organism: Mammarenavirus choriomeningitidis
[3] = source organism: Influenza A virus
[4] = source organism: Hepacivirus hominis

| Sequence | IC50 (HLA-A*02:01; [1]) | IC50 (HLA-A*02:02; [1]) | IC50 (HLA-A*02:03; [1]) | IC50 (HLA-A*02:06; [1]) | IC50 (HLA-A*68:02; [1]) | other results |
| --- | --- | --- | --- | --- | --- | --- |
| PLIISTDQDT | 52.5 µM | 45 µM | 35.6 µM | 47.4 µM | ≥ 70 µM |  |
| SNSEDLLKAV |  |  |  |  |  | IC50 (HLA-A*02:01; [2]): 7.84 µM; IC50 (HLA-A*02:02; [2]): 17.8 µM; IC50 (HLA-A*02:03; [2]): 15.2 µM; IC50 (HLA-A*02:06; [2]): 10 µM; IC50 (HLA-A*68:02; [2]): 43 µM |
| GTKGKLYIAL | 16.6 µM | 9.07 µM | 7.84 µM | 37.4 µM | 7.51 µM |  |
| YIKDLKHAT | 8.08 µM | 18.5 µM | ≥ 70 µM | 39.4 µM | ≥ 70 µM |  |
| PACVYGPA |  |  |  |  |  | IC50 (HLA-A*02:01; [3]): ≥ 70 µM; IC50 (HLA-A*02:02; [3]): 14.2 µM; IC50 (HLA-A*02:03; [3]): ≥ 70 µM; IC50 (HLA-A*02:06; [3]): ≥ 70 µM; IC50 (HLA-A*68:02; [3]): ≥ 70 µM |
| IAEYIAGLKI | 7.83 µM | 28.6 µM | 23 µM | 10.2 µM | 5.85 µM |  |
| PLHIVCSKTV | 21.3 µM | 34.5 µM | 5.27 µM | 27 µM | 9.35 µM |  |
| ALSYSAGA |  |  |  |  |  | IC50 (HLA-A*02:01; [3]): 39.3 µM; IC50 (HLA-A*02:02; [3]): 16.9 µM; IC50 (HLA-A*02:03; [3]): 10.7 µM; IC50 (HLA-A*02:06; [3]): ≥ 70 µM; IC50 (HLA-A*68:02; [3]): ≥ 70 µM |
| DVCKKNLDL | 19.5 µM | 25.4 µM | 8.02 µM | 16.3 µM | 40.6 µM |  |
| CTEETKRNIA | ≥ 70 µM | ≥ 70 µM | 50.1 µM | ≥ 70 µM | 15.2 µM |  |
| GANGSTAEQL | 67.6 µM | 7.28 µM | 45.3 µM | 55.2 µM | 13.3 µM |  |
| DIDLLFNEKL | 5.79 µM | 11.2 µM | 26.7 µM | 25.7 µM | 15.8 µM |  |
| RAVKLYRKL |  |  |  |  |  | IC50 (HLA-A*02:01; [3]): 53.5 µM; IC50 (HLA-A*02:02; [3]): ≥ 70 µM; IC50 (HLA-A*02:03; [3]): 49.9 µM; IC50 (HLA-A*02:06; [3]): ≥ 70 µM; IC50 (HLA-A*68:02; [3]): ≥ 70 µM |
| PLTGNNTITT | ≥ 70 µM | 7.67 µM | 29.5 µM | ≥ 70 µM | 49.3 µM |  |
| PANINDKQIM | 32.3 µM | 49.5 µM | 43.1 µM | 10.9 µM | ≥ 70 µM |  |
| PLIRHENRMVL |  |  |  |  |  | IC50 (HLA-A*02:01; [3]): 28.8 µM; IC50 (HLA-A*02:02; [3]): ≥ 70 µM; IC50 (HLA-A*02:03; [3]): 16.9 µM; IC50 (HLA-A*02:06; [3]): ≥ 70 µM; IC50 (HLA-A*68:02; [3]): ≥ 70 µM |
| LLGLLLLCV |  |  |  |  |  | IC50 (HLA-A*02:01; [4]): 7.37 µM; IC50 (HLA-A*02:02; [4]): 9.77 µM; IC50 (HLA-A*02:03; [4]): 6.77 µM; IC50 (HLA-A*02:06; [4]): 19.1 µM; IC50 (HLA-A*68:02; [4]): ≥ 70 µM |

| Sequence | IC50 (HLA-A*02:01; [1]) | IC50 (HLA-A*02:02; [1]) | IC50 (HLA-A*02:03; [1]) | IC50 (HLA-A*02:06; [1]) | IC50 (HLA-A*68:02; [1]) | other results |
| --- | --- | --- | --- | --- | --- | --- |
| VTGSYNLVDT | ≥ 70 µM | ≥ 70 µM | ≥ 70 µM | ≥ 70 µM | ≥ 70 µM |  |
| PVIVPDIKL | 52.8 µM | 41.2 µM | 32.7 µM | 51.4 µM | 29.9 µM |  |
| AATKRYPGVM | 67.2 µM | 20.1 µM | 47.9 µM | 46.8 µM | ≥ 70 µM |  |
| RTWKVLSIMA | 8.48 µM | 24 µM | 6.05 µM | 5.75 µM | 8.2 µM |  |
| DVKVLAARL | 12 µM | 6.23 µM | 10.7 µM | 10 µM | 7.95 µM |  |
| DIVSDSKKIM | 64.6 µM | 25.1 µM | 57.2 µM | ≥ 70 µM | ≥ 70 µM |  |
| KLTKDRKML | 56.6 µM | 24.5 µM | 36.4 µM | ≥ 70 µM | ≥ 70 µM |  |
| ALEPRKEIDV | 27.2 µM | 8.37 µM | 11.2 µM | 63.8 µM | ≥ 70 µM |  |
| ELEKCTSEI | 24.8 µM | 21.1 µM | 56 µM | 57.8 µM | 24.6 µM |  |
| CLEAKTHFST | 49.7 µM | 12.4 µM | 11.1 µM | ≥ 70 µM | ≥ 70 µM |  |
| SAEDNYLAKL | ≥ 70 µM | ≥ 70 µM | ≥ 70 µM | ≥ 70 µM | ≥ 70 µM |  |
| NILGGVLHT | 41.7 µM | ≥ 70 µM | 20.6 µM | 9.97 µM | ≥ 70 µM |  |
| PACVYGLA |  |  |  |  |  | IC50 (HLA-A*02:01; [3]): 68.7 µM; IC50 (HLA-A*02:02; [3]): ≥ 70 µM; IC50 (HLA-A*02:03; [3]): ≥ 70 µM; IC50 (HLA-A*02:06; [3]): ≥ 70 µM; IC50 (HLA-A*68:02; [3]): 52.3 µM |
| VLKAMHDKKI | ≥ 70 µM | 48.9 µM | 33.9 µM | ≥ 70 µM | ≥ 70 µM |  |
| AINKCVDIFT | 15.9 µM | 25.3 µM | 26.4 µM | 38.5 µM | 39 µM |  |
| VTKSSSWKDV | ≥ 70 µM | ≥ 70 µM | 41.9 µM | ≥ 70 µM | 40.4 µM |  |
| VAKCCSKTNT | 20.9 µM | 14.7 µM | 21.7 µM | 40.7 µM | ≥ 70 µM |  |
